# Residue numbers refer to the chain shown, from its start.
# T1: human CD25 (Interleukin-2 receptor alpha chain) (human, UniProt P01589 22-272)
# T1 sequence (looked up): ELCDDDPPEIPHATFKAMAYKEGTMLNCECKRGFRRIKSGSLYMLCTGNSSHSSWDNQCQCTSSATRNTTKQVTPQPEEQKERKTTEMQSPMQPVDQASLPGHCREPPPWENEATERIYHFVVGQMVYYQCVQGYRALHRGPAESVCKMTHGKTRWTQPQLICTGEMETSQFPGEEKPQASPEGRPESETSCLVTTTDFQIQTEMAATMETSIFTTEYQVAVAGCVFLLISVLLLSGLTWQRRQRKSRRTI
# B1: ALD25H2 anti-CD25 antibody (antibody, V domains shown)
# VH: EVQLVESGGGLVQPGRSMKLSCAASGFTFSNHAMAWVRQAPKKGLEWVAYISYDGDNTYYRDSVKGRFTISRDNAKSTLYLQIDSLRSEDTATYYCTTGGNSGYDWGQGVMVTVSS
# VL: DIQMTQSPSFLSASVGDRVTINCKASQNVNKFVNWYQQKLGEAPRRLIYGTNSLQTGIPSRFSGSGSGTDYTLTISSLQPEDVATYFCQQYSSWPWTFGGGTKLELK
# B2: ALD25H1 anti-CD25 antibody (antibody, V domains shown)
# VH: B1 VH with T28P, N31D, E46Q, K76R, Y80F, I83M
# VL: B1 VL with V33L
# B3: ALD25H4 anti-CD25 antibody (antibody, V domains shown)
# VH: B1 VH with A24V, K76Q, I83M
# VL: B1 VL with A25G, V33L, S92T
# B4: 7G7B6 monoclonal antibody (IL-2 non-competitive anti-CD25 antibody) (antibody, V domains shown)
# VH: EVQLVESGGDLVQPRGSLKLSCAASGFTFSSYGMSWVRQTPDKRLELVATINGYGDTTYYPDSVKGRFTISRDNAKNTLYLQMSSLKSEDTAMYFCARDRDYGNSYYYALDYWGQGTSVTVSS
# VL: QIVLSQSPAILSASPGERVTMTCRASSSVSFMHWLQQKPGSSPKPWIYATSNLASGVSARFSGSGSGTSYSLTITRVEAEDAATYYCQQWSSNPPAFGGGTKLEIK
# Biological target: T1, human CD25 (Interleukin-2 receptor …)
# Experiment: cell-based or functional assay
row,Binder,"IL-2 induced T-cell proliferation, Mean (control = 100)"
1,B1,81.7
2,B2,78.1
3,B3,73
4,B4,55
